Consider one substance from publication PMC5201024.

This test addresses MST3/4 (endogenous MST3 and MST4, m10/m11). The test can be described thus: co-immunoprecipitation (anti-Myc IP, immunoblot quantification). The conditions noted are these: HeLa cells co-transfected with Myc-RHOA-Q63L and GFP-FAM65A full-length; n=3 independent experiments; read off a plot. A general note: A western blot detects proteins with antibodies after separation by electrophoresis.

Turning to RHOA wild type (P61586) Q63L, the response (IP/Input ratio (arbitrary units)) came to 4.6.
